Results published in patent publication US20170114140A1.
Several values for one entry are separate records, joined by “and”; a condition that tells them apart may be missing. Equal entries are not always repeated.

How the values were obtained:
Test in all cases: cell-based or functional assay
[1] = biological target: IL-25 (R&D Systems) used to restimulate human PBMC (UniProt Q9H293)
[2] = biological target: human IL-17RB on human PBMC (human) (UniProt Q9NRM6)
[3] = biological target: human IL-17RA on cells (human PBMC; human foreskin fibroblasts) (human) (UniProt Q96F46)

Sequence of human IL-17RB on human PBMC (human) (Q9NRM6 18-502): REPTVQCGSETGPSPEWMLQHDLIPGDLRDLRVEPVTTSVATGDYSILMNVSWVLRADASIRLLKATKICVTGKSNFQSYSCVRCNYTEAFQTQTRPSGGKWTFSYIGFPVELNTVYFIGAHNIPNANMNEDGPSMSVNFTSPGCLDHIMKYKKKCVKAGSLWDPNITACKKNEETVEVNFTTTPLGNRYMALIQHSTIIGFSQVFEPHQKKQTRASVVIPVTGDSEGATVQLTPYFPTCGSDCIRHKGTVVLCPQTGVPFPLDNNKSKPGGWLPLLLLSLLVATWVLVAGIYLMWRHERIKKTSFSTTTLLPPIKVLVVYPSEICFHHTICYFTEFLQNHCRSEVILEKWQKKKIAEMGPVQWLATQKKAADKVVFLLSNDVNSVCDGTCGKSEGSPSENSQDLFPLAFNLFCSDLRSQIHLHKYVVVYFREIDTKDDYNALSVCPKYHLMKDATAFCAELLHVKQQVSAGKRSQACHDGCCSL
Sequence of IL-25 (R&D Systems) used to restimulate human PBMC (Q9H293 33-177 limits assumed): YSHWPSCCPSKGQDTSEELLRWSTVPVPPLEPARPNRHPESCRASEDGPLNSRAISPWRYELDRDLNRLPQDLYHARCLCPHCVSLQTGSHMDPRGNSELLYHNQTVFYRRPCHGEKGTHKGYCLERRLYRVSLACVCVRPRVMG

## HuIL-17RB: HIS (extracellular region of human IL-17RB fused to poly HIS) (from UniProt Q9NRM6 18-292) (receptor)
[1]
  % Inhibition of IL-5 production (TSLP treated human PBMC + IL-2 + IL-25), inhibitor 10 micrograms/mL: 67%

## MAB1207: anti-HuIL-17RB MuIgG2b (R&D Systems) (antibody)
[2]
  % Inhibition of IL-5 production (TSLP treated human PBMC + IL-2 + IL-25), inhibitor 10 micrograms/mL: 13%

## MAB1771: anti-HuIL-17RA MuIgG2b (R&D Systems) (antibody)
[3]
  % Inhibition of IL-5 production (TSLP treated human PBMC + IL-2 + IL-25), inhibitor 10 micrograms/mL: 24% and 33%
